The record followed here is the domain aggregation screens of Martell et al. (2025).

The data set can be described thus: soluble fraction after stress (log2 fold change); higher = more stays soluble; pooled small domains, quantitative proteomics. The note with it: stress: pH 4. Put shortly: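 Aggregation propensity is estimated from the fold change in each domain's soluble amount after acid stress. Pooled small-domain libraries were stressed at pH 4, and higher log2 values mean more stayed soluble.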

With “HMNASTVTLENFEGAKYDDVYGKYDYQFSVTYEQTDKYESGVIISQKPEAGTKIIKGSQVSLVVAT”, the “soluble fraction (log2)” value was determined as 0.101. For the sequence “HMNASVIADLFRQTGASVMIHGHTHRPDIHALEANGDAAFRAVLGAWHTEGSMIRVTQDDVTLIAFP”, the “soluble fraction (log2)” value is 0.173. For “HMNATLEQLTQREREIAVLMAEGLTNAQIGSRLNVSMASVKAHLSHIFTKLGVDNRVSAAMMVL”, the “soluble fraction (log2)” value is -0.0121.

On to “HMNATPDMERYWASSAAEGRALEPLYAVSRGDGGEPLWWSPSRAQAERMAREEGGPLTVDRIDPP”, for which the “soluble fraction (log2)” value was -0.0463. Take “HMNAVYAEERRAYILAALEKRGTVHSYELAEQMGVSRETIRRDIMELSNRGLLVKTHGGAIST”: the “soluble fraction (log2)” value was -0.352.

“HMNAYEVLIPNIYIGQRVDQTLASLFPQFSRSRLQNWLARGNLLIDGEIIKPKTKVLGGEQIIILDT”: the “soluble fraction (log2)” value is -1.05. For the sequence “HMNDAEEKAEAIEGVKNFMANMEKTDIDFKSKESVLLEQVEEIRKNYPVAQWPVIVKQLYNNIGRL”, the “soluble fraction (log2)” value was -0.257. Turning to “HMNDIDKFVAALVDQDTMAGTNRAFDENDIQTMKNMSSIEDVKQYAVANGLSSGKVNNALISAGL”, the “soluble fraction (log2)” value was -0.195. For “HMNDIQIILQEAVARLPKKQQLVFNMKYFDHLKYQEISEILGTSVGGLKASYFQAVKKIENYIINKH” the value was 0.0158; for “HMNDRLFQILYLLLEKGTMTAPELSRALEVSVRTIYRDIDALSLAGVPVYATQGKNGGVSLLPNY”, -0.758; for “HMNDTLQEYFEALERLKSNNPINVPKNTKINNDSVALEAGRKRGSIKKSREIFAELIEAINNAS”, -0.186.

“HMNDVEAIDDALKDLHKVSPDLAALVEMKFFGGMTEPEISEILGVSERTVRREWEKARAALLVLLE”: the “soluble fraction (log2)” value was -1.18. On to “HMNDVHELPYSSFIEMVERGHVISVTVKHINIEFESTKNENYRTIAPQAMTPPYLELLLKNKDSVKVTFLP”, for which the “soluble fraction (log2)” value was -0.516. On to “HMNDVLVGAIPESASGSRLDKVMPSVFPPYSRSQLQVWLKQGRILMGNGIPSPRLIVSGGEVLSLVVPELP”, for which the “soluble fraction (log2)” value is -0.244.

On to “HMNEDFSEIIAAVKKFAVDNLSLSTLSDEELEEQIKTITDNMIGNRYVSIKNRVDIAQQVFSSIR”, for which the “soluble fraction (log2)” value is -0.435. Turning to “HMNEMEFAQRLRQFRKAKNLTQQELADRLGVSNKSVSRWESGSYPDVGTLVALARALGVTVDELLDPKA”, the “soluble fraction (log2)” value is 0.149.

On to “HMNEMEWVAKLIDQLPERERMILQLREIEQYEFDQIASLMEIPEGTVRVYLSRIRKKIKKQFIEIQSH”, for which the “soluble fraction (log2)” value was -0.405. The result for “HMNENFPYRLKEMVVVQSRTWPGINKPGGVGQVMKINPEAGTVNVKYVLGGSEKNIELKYVTSNDLNSK” reads 0.063. As for “HMNENYNLSKREKEVLDLLVNGKSYKVIATELAISYETVHSHIKKIYHKLHVSSIGEAVSKTIKQKIL”, the “soluble fraction (log2)” value was -0.561.

Take “HMNEPITIALREAEEAANKILNEGVHSVELSPQNGYVRRLQHELIARYGLTSASRGSDPSRRVSVGAN”: the “soluble fraction (log2)” value is -0.273. On to “HMNEQKVSSLLTPRQLAFIDEYLIDFNGAQAAIRAGYSHKTAGPQAARLLVNVNISRMIAERIEARNK”, for which the “soluble fraction (log2)” value was -1.22. For the sequence “HMNEQVAVVSGSQVNVRSGPGTTSAVVGQVSKGDNLPVLNQSGDWYQIKLPGGNAGWVAGWLVSLRPTT”, the “soluble fraction (log2)” value came out at 0.237. The result for “HMNESPVLAVLTPTERKVASLVAEGLTNQAIAARMILAEGTVKNHVSTLLHKLQAPDRTALALTLYKAFQ” reads 0.165; that for “HMNETRVDQAADLLLALLEKEPKSAAEILDEFEQAGFSKSGLYRAKDALGVVSIRKEGRWVWSLPHSLD”, -0.778; that for “HMNEYIVSAEQEGMRLDVFLTEQMEGSRSYIQSLIKGGHVTVGDKVGKANLRLTPDTVIHVEIPEPE”, -0.166.

“HMNEYLPEAVQKLLEVMEYDIPYTSNELMERLGLKAKEGFRRNYLHPAMEMKLIQMTIPDKPNSRNQRYLR”: the “soluble fraction (log2)” value was -0.248. For “HMNFHLEHHIAELLYRSIRGELSDFERQELNQWRSDSPMHETLFMRLQDDEYIDEELGVFIK” the value was -1.89; for “HMNFKNMIDSLSGILFKKDPSAAIIDIGGVRLKVFITVGSYEQLPAKGEQVEILTYLHVKEDILNLYG”, -0.819.

For “HMNFMDGFQSFFQESGAMNRPMTADVVSYRLPDGTVQQGNSTMRGLMDQYLKSIGQSPTTGVP”, the “soluble fraction (log2)” value is -0.176.

As to “HMNFRESVLAVFENSKQKYLDFDEIAKRLGLTRGFDRQALASMLNELTRNDEIVFTKRNKYTLPEN”, the “soluble fraction (log2)” value was -0.774. For the sequence “HMNGAVAEQARKQLMAALKASEFIAEEKLDEWLDALALPEDKRTAIVDAVDELDYEEAISELEN”, the “soluble fraction (log2)” value turned out to be 0.0531. As for “HMNGDYFEYRYAVNGSRSTPPSLSKTSRNPSGWSTTVPTVGNLQYLWFTVAKINGETNSLIQNWSTPARQT”, the “soluble fraction (log2)” value was 0.143.

For the sequence “HMNGEAQTMYVTARTLNVRKGPGTSYAKAGTLSRGTAVQVVGFSGNWAKLSNGYYVSTSYLAKI”, the “soluble fraction (log2)” value was 0.0208. For the sequence “HMNGKWKLRIIKELLHSNIRFGQILKNIPDISPKVLSQQLKEMEEDGIIERIVISEMPPNVEYVLTDMGE”, the “soluble fraction (log2)” value is -0.458. The result for “HMNGLNISYRMDGENVVETIVFPDATMIRTIAPNGVMTIKTIEDGSVSTSELKADYKLYKKIYESQY” reads -0.401.
